Experimental data: patent publication US5223256A, “Thrombolytically active non-glycosylated protein” (Boehringer Mannheim GmbH, priority 1989, dated 1993)

Key:
[1] = Pharmacokinetics in rabbits (t-PA activity in plasma); type: in vivo, New-Zealand white rabbits; conditions: 200000 IU/kg, i.v. infusion 30 min
Description: The pharmacokinetic properties of K2P were compared to those of Actilyse® in New-Zealand white rabbits. Both fibrinolytic agents were infused for 30 minutes at a dose of 200,000 IU/kg body weight. Plasma samples were taken at defined times before, during and after the infusion. The t-PA activity was measured with a spectrophotometric test according to J. H. Verheijen et al., (Thromb. Haemostas. 48, 266, 1982), modified according to H. Lill (Z. ges. Inn. Med. 42, 478, 1987).
A calculation programme for non-linear regression modified according to H. Y. Huang (Aero-Astronautics-Report 64, Rice University, 1-30, 1969) Was used to calculate the pharmacokinetic parameters. The parameters were calculated individually using a bi-exponential pharmacokinetic model.

jugular vein thrombosis = experiment: Thrombolysis in the rabbit jugular vein model; type: in vivo; conditions: 4 h infusion, mean ± SEM
Description: (§1) The jugular vein model established by D. Collen et al., (J. Clin. Invest. 71, 368, 1983) was used to investigate the thrombolytic efficacy. K2P and Actilyse® were each examined at three dose levels. The fibrinolytic agents were infused for 4 hours and afterwards the rate of thrombolysis was determined (Table 2, FIG. 5).

coagulation system [2] = experiment: Haemostasis parameters in the rabbit jugular vein model; type: in vivo; conditions: 30 min after end of infusion, mean ± SEM
Description: as §1
(§2) Thrombolysis, level of t-PA plasma activity (at the end of a 4 h
and haemostasis parameters (30 min after the end of the infusion) of
Mean ± SEM; kU = 1000 IU; HaemostasisParameter (% with reference to […]

[3] = system: coronary artery thrombosis; experiment: Dog model for coronary artery thrombosis (thrombolysis); type: in vivo; conditions: for Wet weight of the residual thrombus: 2 h; for Wet weight of the residual thrombus / Reperfusion time: mean ± SEM
From the text: An experimental model for acute myocardial infarction in animals was chosen as an example in order to examine the thrombolytic effect of K2P from E. coli on arterial thrombi. The dog was chosen as the animal species. The method for the formation of a coronary artery thrombus was a modification of the technique of Romson et al., (Thromb. Res. 17, 841, 1980). In the open thorax of anaesthetized dogs which were artificially respirated, the intimal surface of the ramus branch of the left circumflex coronary artery (LCX) was electrically stimulated (150 μA) and by this means a thrombus was produced. Previously a screw was applied distal to the thrombosis in order to eliminate a reactive hyperaemia by the experimental stenosis. Proximal to the coronary thrombosis the LCX was equipped with an electromagnetic flow measuring head in order to be able to measure the reperfusion.
(§3) In a study to determine the dosage, BM 06.022 with the eukaryotic t-PA (Alteplase, Actilyse®, Dr. Karl Thomae GmbH, Biberach, FRG) in four different doses and with placebo were injected as an initial single intravenous bolus over 1 min into heparinized dogs; 6 animals were injected with each dose. Plasma samples were taken before and at defined times after the injection in order to determine the plasma concentration of the t-PA activity and of fibrinogen, plasminogen and α2 -antiplasmin as well as the number of thrombocytes in whole blood. Fibrinogen was measured coagulometrically according to Clauss (Acta haemat. 17, 237, 1957), plasminogen and α2-antiplasmin were measured spectrophotometrically as described by Collen et al., (J. Clin. Invest. 71, 368, 1983). In addition, the "Simplate bleeding time" was measured on the hind leg of the dogs using a lancet (Simplate® I, Organon Teknika, Eppelheim, FRG) during a venostasis of 40 mm Hg (J. Surg. Res. 27, 244, 1979). The statistical comparison of the measured values after injection with the control value before injection was carried out with the Wilcoxon Test for pair differences.
In order to describe the thrombolytic effect, the number of reperfused animals per dose-group (=reperfusion rate) as well as the time up to the reperfusion (=reperfusion time) was quoted. In addition, the wet weight of the residual thrombus still present 2 h after injection was measured and the number of animals with a re-occlusion after reperfusion (=re-occlusionrate) was determined. With the aid of a semi-logarithmic regression analysis of the dose-effect (reperfusion rates) relationships, the effective dose for a 50% reperfusion rate (=ED50) was determined for each substance. The statistical comparison of the weights of the residual thrombi was carried out using the Wilcoxon-Mann-Whitney Test for unconnected random samples.

[4] = Pharmacokinetics in the dog (t-PA activity in plasma); type: in vivo; conditions: 200000 IU/kg, i.v. bolus, mean ± standard deviation
Description: as §3
The plasma concentration of the t-PA activity was measured with a spectrophotometric test according to Verheijen et al., (Thromb. Haemost. 48, 266, 1982) modified according to Lill (Z. gesamte Inn. Med. 42, 478, 1987). A calculation programme for non-linear regression modified according to H. Y. Huang (Aero-Astronautics-Report 64, Rice University, USA, 1-30, 1969) was used to calculate the pharmacokinetic parameters. The parameters were calculated individually using a bi-exponential pharmacokinetic model after subtraction of the endogenous basal level of t-PA activity from the subsequent measured values.

coagulation system [5] = experiment: Coagulation parameters and number of thrombocytes in the dog; type: in vivo; conditions: for Fibrinogen (% of initial value) / Number of platelets (% of initial value) / Plasminogen (% of initial value) / α2-Antiplasmin (% of initial value): 2 h after i.v. bolus, mean ± SEM
Description: as §3

bleeding time = experiment: Simplate bleeding time in the dog; type: in vivo; conditions: i.v. bolus
Description: as §3

[6] = Plasma t-PA activity at the end of infusion in the rabbit jugular vein model; type: in vivo; conditions: end of 4 h infusion, mean ± SEM
Description: as §1, §2

[7] = background; cited from earlier work
plasminogen = conditions: background; cited from earlier work
[8] = background; cited from earlier work; remark: listed apart in the source

For “Actilyse®: eukaryotic t-PA (Alteplase, Actilyse®, Dr. Karl Thomae GmbH, Biberach, FRG)”, the “Cinf (plasma concentration of t-PA activity at end of infusion)” value [1] was 326,6 IU/ml, the “Cltot (total plasma clearance)” value [1] was 22.2 mL/min/kg and the “Vc (volume of distribution of the central compartment)” value (“Vc” for short) [1] was 73.7 mL/kg. The t1/2α [1] was 2,1 min, the t1/2β [1] was 10,9 min and the “Cltot (total plasma clearance)” value ([1]; listed as Actilyse ®) was 22,2 ml/min/kg. For the same substance, the “Vc” value ([1]; listed as Actilyse ®) was 73,7 ml/kg, the Thrombolysis (jugular vein thrombosis; 400 kU/kg) was 46 ± 3% and the Thrombolysis (jugular vein thrombosis; 800 kU/kg) was 64 ± 6%. The “Fibrinogen (% of base line)” value (coagulation system [2]; 400 kU/kg) was 90 ± 3%, the “Plasminogen (% of base line)” value (coagulation system [2]; 400 kU/kg) was 88 ± 4% and the “α2-Antiplasmin (% of base line)” value (coagulation system [2]; 400 kU/kg) was 87 ± 3%. The “Fibrinogen (% of base line)” value (coagulation system [2]; 800 kU/kg) was 77 ± 6%, the “Plasminogen (% of base line)” value (coagulation system [2]; 800 kU/kg) was 77 ± 4% and the “α2-Antiplasmin (% of base line)” value (coagulation system [2]; 800 kU/kg) was 74 ± 6%. For the same substance, the Re-occlusion rate ([3]; 1 130 000 IU/kg, i.v. bolus) was 4/4, the Reperfusion rate ([3]; 1 130 000 IU/kg, i.v. bolus) was 4/6 and the “Wet weight of the residual thrombus” value ([3]; 1 130 000 IU/kg, i.v. bolus) was 4,4 ± 0,5 mg. For the same substance, the Reperfusion time ([3]; 1 130 000 IU/kg, i.v. bolus) was 14 ± 3 min, the Re-occlusion rate ([3]; 1 600 000 IU/kg, i.v. bolus) was 4/6 and the Reperfusion rate ([3]; 1 600 000 IU/kg, i.v. bolus) was 6/6. The “Wet weight of the residual thrombus” value ([3]; 1 600 000 IU/kg, i.v. bolus) was 2,2 ± 0,7 mg, the Reperfusion time ([3]; 1 600 000 IU/kg, i.v. bolus) was 28 ± 11 min and the Reperfusion rate ([3]; 200 000 IU/kg, i.v. bolus) was 0/6. The “Wet weight of the residual thrombus” value ([3]; 200 000 IU/kg, i.v. bolus) was 8,8 ± 1,3 mg, the Re-occlusion rate ([3]; 800 000 IU/kg, i.v. bolus) was 1/2 and the Reperfusion rate ([3]; 800 000 IU/kg, i.v. bolus) was 2/6. For the same substance, the “Wet weight of the residual thrombus” value ([3]; 800 000 IU/kg, i.v. bolus) was 5,5 ± 0,4 mg, the Reperfusion time ([3]; 800 000 IU/kg, i.v. bolus) was 35 ± 38 min and the Reperfusion rate ([3]; 1,600 kU/kg body weight, i.v.) was 100%. The re-occlusion after reperfusion ([3]; i.v. bolus) was “Most of the dogs treated with K2P or Actilyse® re-occluded after the reperfusion”, the “reperfusion time, average over all animals” value ([3]; i.v. bolus, all doses) was 24.2 ± 6.2 min and the “weight of the residual thrombus compared to placebo” value ([3]; increasing doses, i.v. bolus) was “statistically significant reduction in the weight of the residual thrombus”. For the same substance, the Cinj. [4] was 1674 IU/ml, the T1/2α [4] was 1.6 ± 0.2 min and the T1/2β [4] was 14,6 min. For the same substance, the “Vc” value [4] was 106,1 ml/kg, the T1/2α ([4]; listed as Actilyse ®) was 1,6 min and the “Fibrinogen (% of initial value)” value (coagulation system [5]; 1 130 000 IU/kg) was 16 ± 13%. The “Number of platelets (% of initial value)” value (coagulation system [5]; 1 130 000 IU/kg) was 110 ± 10%, the “Plasminogen (% of initial value)” value (coagulation system [5]; 1 130 000 IU/kg) was 59 ± 6% and the “α2-Antiplasmin (% of initial value)” value (coagulation system [5]; 1 130 000 IU/kg) was 45 ± 6%. For the same substance, the “Fibrinogen (% of initial value)” value (coagulation system [5]; 1 600 000 IU/kg) was 3±0%, the “Number of platelets (% of initial value)” value (coagulation system [5]; 1 600 000 IU/kg) was 119 ± 10% and the “Plasminogen (% of initial value)” value (coagulation system [5]; 1 600 000 IU/kg) was 46 ± 2%. For the same substance, the “α2-Antiplasmin (% of initial value)” value (coagulation system [5]; 1 600 000 IU/kg) was 19 ± 11%, the “Fibrinogen (% of initial value)” value (coagulation system [5]; 1 600 000 IU/kg, listed as Actilyse ®) was 3 ± 0% and the “Fibrinogen (% of initial value)” value (coagulation system [5]; 200 000 IU/kg) was 97 ± 3%. The “Number of platelets (% of initial value)” value (coagulation system [5]; 200 000 IU/kg) was 109 ± 4%, the “Plasminogen (% of initial value)” value (coagulation system [5]; 200 000 IU/kg) was 90 ± 3% and the “α2-Antiplasmin (% of initial value)” value (coagulation system [5]; 200 000 IU/kg) was 86 ± 4%. For the same substance, the “Fibrinogen (% of initial value)” value (coagulation system [5]; 800 000 IU/kg) was 86 ± 4%, the “Number of platelets (% of initial value)” value (coagulation system [5]; 800 000 IU/kg) was 104 ± 6% and the “Plasminogen (% of initial value)” value (coagulation system [5]; 800 000 IU/kg) was 87 ± 3%. For the same substance, the “α2-Antiplasmin (% of initial value)” value (coagulation system [5]; 800 000 IU/kg) was 64 ± 5%, the concentration of platelets (coagulation system [5]; 2 h after injection, dog) was “virtually uninfluenced” and the “lowering of residual contents of plasminogen and α2-antiplasmin” value (coagulation system [5]; 2 h after injection, dog) was “more pronounced with Actilyse® than with K2P”. The “residual content of fibrinogen at the ED50 for thrombolytic effect” value (coagulation system [5]; equipotent doses, semi-logarithmic regression, dog) was 38.6%, the “bleeding time compared with control value before injection” value (bleeding time) was “increased the bleeding time which was statistically significant at doses of 1130 and 1600 kU/kg body weight” and the “Plasma t-PA activity” value ([6]; 400 kU/kg) was 47 ± 9 IU/ml. For the same substance, the “Plasma t-PA activity” value ([6]; 800 kU/kg) was 107 ± 27 IU/ml.

In the case of “natural t-PA: tissue-type plasminogen activator t-PA”, the clearance rate [7] is given as “rapid decrease in its plasma concentration (clearance)”, the “increase of enzymatic activity in presence of fibrin or fibrinogen cleavage products” value (plasminogen) is given as “more than ten-fold” and the “side effects at high therapeutic doses” value [8] is given as “side effects such as for example bleeding”.
